According to patent US20160333098A1 (published 2016):
One block for each molecule: values may come before it.

What was measured:
[1] = target: cell lines MCF-7, DU-145 and ME-180 carrying both IGF-1R and EGP-1; assay: flow cytometry (FACScan), MCF-7 cells; control
[2] = target: cell lines MCF-7, DU-145 and ME-180 carrying both IGF-1R and EGP-1; assay: flow cytometry (FACScan), MCF-7 cells; structural control
[3] = target: EGP-1 expressed on cancer cell lines (MCF-7, DU-145, ME-180) (UniProt P09758); assay: flow cytometry (FACScan), ME-180 cells
[4] = target: EGP-1 expressed on cancer cell lines (MCF-7, DU-145, ME-180) (UniProt P09758); assay: flow cytometry (FACScan), MCF-7 cells
[5] = target: EGP-1 expressed on cancer cell lines (MCF-7, DU-145, ME-180) (UniProt P09758); assay: flow cytometry (FACScan), DU145 cells
[6] = target: IGF-1R expressed on cancer cell lines (MCF-7L, MCF-7, CaPan1, DU-145, ME-180, Hep G2, HT-29, LNCaP) (human) (UniProt P08069); assay: 125I-IGF-1 binding to MCF-7L cells in the presence of 100 ng/mL antibody
[7] = target: IGF-1R expressed on cancer cell lines (MCF-7L, MCF-7, CaPan1, DU-145, ME-180, Hep G2, HT-29, LNCaP) (human) (UniProt P08069); assay: 125I-IGF-1 binding to MCF-7L cells in the presence of 1000 ng/mL antibody
[8] = target: recombinant human IGF-1R (rhIGF-1R), immobilized on plates or polystyrene beads (human) (UniProt P08069); assay: labeled antibody on rhIGF-1R-coated beads; competitor: unlabeled R1
[9] = target: recombinant human IGF-1R (rhIGF-1R), immobilized on plates or polystyrene beads (human) (UniProt P08069); assay: labeled antibody on rhIGF-1R-coated beads; competitor: unlabeled MAB391
[10] = target: IGF-1R expressed on cancer cell lines (MCF-7L, MCF-7, CaPan1, DU-145, ME-180, Hep G2, HT-29, LNCaP) (human) (UniProt P08069); assay: 125I-IGF-1 binding to MCF-7L cells, 0 ng/mL antibody (reference)
[11] = target: IGF-1R expressed on cancer cell lines (MCF-7L, MCF-7, CaPan1, DU-145, ME-180, Hep G2, HT-29, LNCaP) (human) (UniProt P08069); assay: 125I-IGF-1 binding to MCF-7L cells in the presence of 10 ng/mL antibody
[12] = target: recombinant human IGF-1R (rhIGF-1R), immobilized on plates or polystyrene beads (human) (UniProt P08069); assay: labeled antibody on rhIGF-1R-coated beads; competitor: unlabeled 1H7
[13] = target: recombinant human IGF-1R (rhIGF-1R), immobilized on plates or polystyrene beads (human) (UniProt P08069); assay: labeled antibody on rhIGF-1R-coated beads; competitor: unlabeled 24-57
[14] = target: recombinant human IGF-1R (rhIGF-1R), immobilized on plates or polystyrene beads (human) (UniProt P08069); assay: labeled antibody on rhIGF-1R-coated beads; competitor: unlabeled 2C8
[15] = target: recombinant human IGF-1R (rhIGF-1R), immobilized on plates or polystyrene beads (human) (UniProt P08069); assay: labeled antibody on rhIGF-1R-coated beads; competitor: unlabeled 1-2
[16] = target: recombinant human IGF-1R (rhIGF-1R), immobilized on plates or polystyrene beads (human) (UniProt P08069); assay: labeled antibody on rhIGF-1R-coated beads; competitor: unlabeled 3B7
[17] = target: recombinant human IGF-1R (rhIGF-1R), immobilized on plates or polystyrene beads (human) (UniProt P08069); assay: labeled antibody on rhIGF-1R-coated beads; competitor: unlabeled cR1
[18] = target: recombinant human IGF-1R (rhIGF-1R), immobilized on plates or polystyrene beads (human) (UniProt P08069); assay: labeled antibody on rhIGF-1R-coated beads; competitor: unlabeled αIR-3
[19] = target: recombinant human IGF-1R (rhIGF-1R), immobilized on plates or polystyrene beads (human) (UniProt P08069); assay: labeled antibody on rhIGF-1R-coated beads; competitor: unlabeled hR1
[20] = target: recombinant human IGF-1R (rhIGF-1R), immobilized on plates or polystyrene beads (human) (UniProt P08069); assay: labeled antibody on rhIGF-1R-coated beads; competitor: unlabeled 24-60
[21] = target: recombinant human IGF-1R (rhIGF-1R), immobilized on plates or polystyrene beads (human) (UniProt P08069); assay: labeled antibody on rhIGF-1R-coated beads; competitor: unlabeled 24-31
[22] = target: recombinant human IGF-1R (rhIGF-1R), immobilized on plates or polystyrene beads (human) (UniProt P08069); assay: labeled antibody on rhIGF-1R-coated beads; competitor: unlabeled 17-69
[23] = target: T1, recombinant human IGF-1R (rhIGF-1R), immobilized on plates or polystyrene beads (human, UniProt P08069 31-935); assay: labeled antibody on rhIGF-1R-coated beads; competitor: unlabeled αIR-3
T1 construct: also called immobilized recombinant human IGF-1R; IGF-1R-coated beads

[24] = target: T1, recombinant human IGF-1R (rhIGF-1R), …; assay: labeled antibody on rhIGF-1R-coated beads; competitor: unlabeled 17-69
[25] = target: T2, recombinant human insulin receptor (rhIR), immobilized (human, UniProt P06213-2 28-944, limits assumed); assay: ELISA on immobilized receptor
[26] = target: T1, recombinant human IGF-1R (rhIGF-1R), …; assay: labeled antibody on rhIGF-1R-coated beads; competitor: unlabeled 1-2
[27] = target: T1, recombinant human IGF-1R (rhIGF-1R), …; assay: labeled antibody on rhIGF-1R-coated beads; competitor: unlabeled 3B7
[28] = target: T1, recombinant human IGF-1R (rhIGF-1R), …; assay: labeled antibody on rhIGF-1R-coated beads; competitor: unlabeled hR1
[29] = target: T1, recombinant human IGF-1R (rhIGF-1R), …; assay: labeled antibody on rhIGF-1R-coated beads; competitor: unlabeled 24-31
[30] = target: T1, recombinant human IGF-1R (rhIGF-1R), …; assay: labeled antibody on rhIGF-1R-coated beads; competitor: unlabeled 24-57
[31] = target: T1, recombinant human IGF-1R (rhIGF-1R), …; assay: ELISA on immobilized rhIGF-1R (cR1 of clones 709.2D2 and 710.2G2, the same value for each)
[32] = target: T1, recombinant human IGF-1R (rhIGF-1R), …; assay: labeled antibody on rhIGF-1R-coated beads; competitor: unlabeled MAB391
[33] = target: T1, recombinant human IGF-1R (rhIGF-1R), …; assay: labeled antibody on rhIGF-1R-coated beads; competitor: unlabeled 1H7
[34] = target: T1, recombinant human IGF-1R (rhIGF-1R), …; assay: labeled antibody on rhIGF-1R-coated beads; competitor: unlabeled cR1
[35] = target: T1, recombinant human IGF-1R (rhIGF-1R), …; assay: labeled antibody on rhIGF-1R-coated beads; competitor: unlabeled 2C8
[36] = target: T1, recombinant human IGF-1R (rhIGF-1R), …; assay: labeled antibody on rhIGF-1R-coated beads; competitor: unlabeled 24-60
[37] = target: T1, recombinant human IGF-1R (rhIGF-1R), …; assay: labeled antibody on rhIGF-1R-coated beads; competitor: unlabeled R1
[38] = target: T2, recombinant human insulin receptor …; assay: hybridoma screening; method not described

EGP-1 expressed on cancer cell lines (MCF-7, DU-145, ME-180), sequence (P09758 27-323): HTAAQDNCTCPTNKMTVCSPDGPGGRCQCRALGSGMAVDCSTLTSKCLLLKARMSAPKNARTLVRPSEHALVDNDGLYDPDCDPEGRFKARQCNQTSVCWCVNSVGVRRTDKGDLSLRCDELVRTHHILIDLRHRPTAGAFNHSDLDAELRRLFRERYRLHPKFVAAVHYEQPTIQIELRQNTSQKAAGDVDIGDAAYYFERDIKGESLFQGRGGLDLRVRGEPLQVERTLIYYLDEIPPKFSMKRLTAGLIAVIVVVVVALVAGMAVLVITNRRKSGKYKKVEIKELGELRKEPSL
T2 sequence (P06213 other isoform, or with tags, fused parts or gaps limits assumed): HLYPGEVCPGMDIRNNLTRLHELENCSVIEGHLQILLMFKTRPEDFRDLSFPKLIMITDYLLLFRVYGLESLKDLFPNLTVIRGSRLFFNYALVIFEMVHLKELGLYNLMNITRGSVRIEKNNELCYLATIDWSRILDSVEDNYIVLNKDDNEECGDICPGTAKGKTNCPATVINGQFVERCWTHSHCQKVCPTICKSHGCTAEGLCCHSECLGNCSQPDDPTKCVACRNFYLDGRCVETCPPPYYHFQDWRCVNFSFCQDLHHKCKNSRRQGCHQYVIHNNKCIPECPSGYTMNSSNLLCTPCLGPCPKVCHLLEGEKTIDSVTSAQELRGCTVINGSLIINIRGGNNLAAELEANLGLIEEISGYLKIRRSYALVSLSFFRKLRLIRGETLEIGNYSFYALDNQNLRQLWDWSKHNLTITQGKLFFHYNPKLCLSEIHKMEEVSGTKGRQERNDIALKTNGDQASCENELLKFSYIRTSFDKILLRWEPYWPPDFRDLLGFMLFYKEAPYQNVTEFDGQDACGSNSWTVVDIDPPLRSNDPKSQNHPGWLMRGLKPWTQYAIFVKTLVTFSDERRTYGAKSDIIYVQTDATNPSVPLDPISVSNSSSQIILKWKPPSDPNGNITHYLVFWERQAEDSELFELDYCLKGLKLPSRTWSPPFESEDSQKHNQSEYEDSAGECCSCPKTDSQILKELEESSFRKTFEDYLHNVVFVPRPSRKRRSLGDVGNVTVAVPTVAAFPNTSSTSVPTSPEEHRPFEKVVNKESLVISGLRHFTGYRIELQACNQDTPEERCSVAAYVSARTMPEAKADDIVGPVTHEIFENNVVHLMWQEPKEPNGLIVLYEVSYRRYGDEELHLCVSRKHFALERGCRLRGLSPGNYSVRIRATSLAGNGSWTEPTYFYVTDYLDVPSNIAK

- % Positive [1]: 2.34%
- MFI [1]: 1.84
Molecule: human IgG (control in Table 5) (antibody)

- % Positive [2]: 3.1%
- MFI [2]: 2.11
Molecule: DNL construct 22-20 (hLL2 IgG-AD2 with hA20 Fab-DDD2) (bispecific antibody)

- % Positive [3]: 100%
- MFI [3]: 59.6
- % Positive [4]: 99.9%
- MFI [4]: 35.7
- % Positive [5]: 93.7%
- MFI [5]: 17
Molecule: Hex-hRS7, monospecific hexavalent DNL construct (hRS7 IgG-AD2 with hRS7 Fab-DDD2) (antibody)

- % Positive [3]: 100%
- MFI [3]: 35.5
- % Positive [4]: 99.2%
- MFI [4]: 21.4
- % Positive [5]: 82.8%
- MFI [5]: 10.6
Molecule: hRS7, humanized anti-EGP-1 antibody

- % binding of 125I-IGF-1 [6]: 54%
- % binding of 125I-IGF-1 [7]: 38%
- % binding [8]: 40%
- % binding [9]: 0%
- % binding of 125I-IGF-1 [10]: 100%
- % binding of 125I-IGF-1 [11]: 95%
Molecule: MAB391, commercially available mouse anti-IGF-1R monoclonal antibody

- % binding [8]: 86%
- % binding [12]: 115%
- % binding [13]: 87%
- % binding [14]: 97%
- % binding [9]: 0%
- % binding [15]: 95%
- % binding [16]: 76%
- % binding [17]: 97%
- % binding [18]: 0%
- % binding [19]: 107%
- % binding [20]: 0%
- % binding [21]: 52%
- % binding [22]: 89%
Molecule: anti-IGF-1R antibody αIR-3

- % binding [8]: 0%
- % binding [12]: 100%
- % binding [13]: 88%
- % binding [14]: 88%
- % binding [9]: 0%
- % binding [15]: 100%
- % binding [16]: 79%
- % binding [17]: 0%
- % binding [18]: 21%
- % binding [19]: 0%
- % binding [20]: 0%
- % binding [21]: 18%
- % binding [22]: 82%
Molecule: anti-IGF-1R antibody 24-60

- % binding [23]: 128%
- % binding [24]: 100%
- binding result [25]: no binding
- % binding [26]: 100%
- % binding [27]: 106%
- % binding [28]: 0%
- % binding [29]: 100%
- % binding [30]: 100%
- Kd [31]: ~0.1 nM
- % binding [32]: 108%
- % binding [33]: 125%
- % binding [34]: 0%
- % binding [35]: 100%
- % binding [36]: 40%
- % binding [37]: 0%
B1: chimeric R1 (cR1) (antibody, V domains shown)
VH: EVKLVESGGGLVQPGGSLKLSCATSGFTFSDYYMYWVRQTPEKRLEWVAYITNYGGSTYYPDTVKGRFTISRDNAKNTLYLQMSRLRSEDTAMYFCARQSNYDYDGWFAYWGQGTTVTVSS
VL: DIVMTQSHKFMSTSVGDRVSITCKASQEVGTAVAWYQQKPGQSPKLLIYWASTRHTGVPDRFTGSGSGTDFTLTISNVQSEDLADYFCQQYSNYPLTFGAGAKLELKR
notes: R1 variable domains on human constant regions of the pdHL2 vector (cR1pdHL2); also called mouse-human chimeric mAb of R1; clones 709.2D2 and 710.2G2

- % binding [23]: 143%
- % binding [24]: 100%
- % binding [26]: 100%
- % binding [27]: 117%
- % binding [28]: 0%
- % binding [29]: 100%
- % binding [30]: 100%
- % binding [32]: 100%
- % binding [33]: 150%
- % binding [34]: 0%
- binding result [38]: no binding
- % binding [35]: 100%
- % binding [36]: 43%
- % binding [37]: 0%
B2: mouse anti-IGF-1R antibody R1 (ML04R1) (antibody, V domains shown)
VH: B1 VH
VL: B1 VL
notes: Used unlabeled or tagged with a fluorescent probe (PE); also called murine R1; clone C-11

- % binding [23]: 136%
- % binding [24]: 100%
- % binding [26]: 100%
- % binding [27]: 100%
- % binding [28]: 0%
- % binding [29]: 100%
- % binding [30]: 100%
- % binding [32]: 121%
- % binding [33]: 131%
- % binding [34]: 0%
- % binding [35]: 100%
- % binding [36]: 71%
- % binding [37]: 0%
B3: humanized R1 (hR1) (antibody, V domains shown)
VH: QVQLQESGGGVVQPGRSLRLSCSASGFTFSDYYMYWVRQAPGKGLEWVAYITNYGGSTYYPDTVKGRFTISRDNAKNTLFLQMDSLRPEDTGVYFCARQSNYDYDGWFAYWGQGTPVTVSS
VL: DIQLTQSPSSLSASVGDRVTITCKASQEVGTAVAWYQQKPGKAPKLLIYWASTRHTGVPSRFSGSGSGTDFTFTISSLQPEDIATYFCQQYSNYPLTFGQGTKVEIKR
notes: also called hR1 IgG; production clone 711.3C11
